The values that follow come from IntAct's records for PubMed 20972448.

The experiment has as its target xpo1_mouse Xpo1 (UniProt Q6P5F9).
Chain of UniProt Q6P5F9 (Q6P5F9 whole entry): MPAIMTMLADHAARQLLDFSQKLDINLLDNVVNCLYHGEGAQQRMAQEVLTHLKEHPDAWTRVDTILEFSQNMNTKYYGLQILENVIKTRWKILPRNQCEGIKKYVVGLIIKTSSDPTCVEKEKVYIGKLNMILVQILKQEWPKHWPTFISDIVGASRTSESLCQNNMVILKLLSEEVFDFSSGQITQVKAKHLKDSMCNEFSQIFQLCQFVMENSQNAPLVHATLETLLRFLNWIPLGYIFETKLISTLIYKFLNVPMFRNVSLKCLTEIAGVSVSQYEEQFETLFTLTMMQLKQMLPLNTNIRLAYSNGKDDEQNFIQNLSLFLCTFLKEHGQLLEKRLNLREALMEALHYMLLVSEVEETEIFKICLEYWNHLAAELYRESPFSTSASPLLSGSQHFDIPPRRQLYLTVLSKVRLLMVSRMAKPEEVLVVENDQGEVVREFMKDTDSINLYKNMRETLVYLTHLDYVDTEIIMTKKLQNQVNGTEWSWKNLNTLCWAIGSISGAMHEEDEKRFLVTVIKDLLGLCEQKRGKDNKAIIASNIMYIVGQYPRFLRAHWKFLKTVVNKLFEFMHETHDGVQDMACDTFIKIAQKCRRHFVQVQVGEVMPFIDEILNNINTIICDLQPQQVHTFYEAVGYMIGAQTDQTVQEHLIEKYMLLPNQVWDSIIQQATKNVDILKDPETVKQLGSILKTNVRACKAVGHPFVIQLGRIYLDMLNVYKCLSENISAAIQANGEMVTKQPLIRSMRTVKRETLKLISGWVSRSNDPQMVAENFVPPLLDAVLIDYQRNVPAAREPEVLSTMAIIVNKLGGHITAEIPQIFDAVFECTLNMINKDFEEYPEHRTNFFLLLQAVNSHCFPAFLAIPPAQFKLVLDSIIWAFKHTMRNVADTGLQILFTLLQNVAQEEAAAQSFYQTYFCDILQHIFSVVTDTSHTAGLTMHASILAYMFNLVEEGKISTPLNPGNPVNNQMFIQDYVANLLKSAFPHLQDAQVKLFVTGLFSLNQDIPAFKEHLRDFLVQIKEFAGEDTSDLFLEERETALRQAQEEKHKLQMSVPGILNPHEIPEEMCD

For the substance “cAMP-dependent protein kinase inhibitor alpha (Homo sapiens) (from UniProt P61925) S35L”, the “effect of a mutation on the interaction” value was “increasing interaction”.
